Reference: article PMC7367873, “Dissecting the sequence determinants for dephosphorylation by the catalytic subunits of phosphatases PP1 and PP2A” (Nature Communications, 2020)

Tests used:
[1] = tested on: GFP-14-3-3β and its binding proteins; test: GFP-14-3-3β co-IP with LC-MS/MS label-free quantification, untreated versus PP1c-treated; design: species or system human; conditions: pairwise comparison PP1 vs untreated, 3 replicates each
GFP-14-3-3β = GFP-14-3-3β co-IP with LC-MS/MS, untreated GFP-14-3-3β versus GFP control (14-3-3 interactome); type: binding, human; conditions: 3 replicates each
[2] = student's t-test, LC-MS/MS label-free quantification
[3] = pairwise comparison untreated GFP-14-3-3β vs GFP, student's t-test, LC-MS/MS label-free quantification

Molecule | Difference (log2), PP1 vs untreated [1, 2] | Difference (log2), untreated vs GFP (GFP-14-3-3β; [3]) | Difference (log2), PP1 vs untreated ([1]; log2 difference, label-free quantification) | Difference (log2), untreated vs GFP (GFP-14-3-3β; log2 difference, pairwise comparison untreated vs GFP, label-free quantification)
THRAP3 (protein, UniProt Q9Y2W1 2-955, looked up) Thyroid hormone …: SKTNKSKSGSRSSRSRSASRSRSRSFSKSRSRSRSLSRSRKRRLSSRSRSRSYSPAHNRERNHPRVYQNRDFRGHNRGYRRPYYFRGRNRGFYPWGQYNRGGYGNYRSNWQNYRQAYSPRRGRSRSRSPKRRSPSPRSRSHSRNSDKSSSDRSRRSSSSRSSSNHSRVESSKRKSAKEKKSSSKDSRPSQAAGDNQGDEAKEQTFSGGTSQDTKASESSKPWPDATYGTGSASRASAVSELSPRERSPALKSPLQSVVVRRRSPRPSPVPKPSPPLSSTSQMGSTLPSGAGYQSGTHQGQFDHGSGSLSPSKKSPVGKSPPSTGSTYGSSQKEESAASGGAAYTKRYLEEQKTENGKDKEQKQTNTDKEKIKEKGSFSDTGLGDGKMKSDSFAPKTDSEKPFRGSQSPKRYKLRDDFEKKMADFHKEEMDDQDKDKAKGRKESEFDDEPKFMSKVIGANKNQEEEKSGKWEGLVYAPPGKEKQRKTEELEEESFPERSKKEDRGKRSEGGHRGFVPEKNFRVTAYKAVQEKSSSPPPRKTSESRDKLGAKGDFPTGKSSFSITREAQVNVRMDSFDEDLARPSGLLAQERKLCRDLVHSNKKEQEFRSIFQHIQSAQSQRSPSELFAQHIVTIVHHVKEHHFGSSGMTLHERFTKYLKRGTEQEAAKNKKSPEIHRRIDISPSTFRKHGLAHDEMKSPREPGYKAEGKYKDDPVDLRLDIERRKKHKERDLKRGKSRESVDSRDSSHSRERSAEKTEKTHKGSKKQKKHRRARDRSRSSSSSSQSSHSYKAEEYTEETEEREESTTGFDKSRLGTKDFVGPSERGGGRARGTFQFRARGRGWGRGNYSGNNNNNSNNDFQKRNREEEWDPEYTPKSKKYYLHDDREGEGSDKWVSRGRGRGAFPRGRGRFMFRKSSTSPKWAHDKFSGEEGEIEDDESGTENREEKDNIQPTTE | -2.776 log2 | 4.049 log2 |  | 
TFE3 (protein, UniProt P19532 1-575, looked up) Transcription factor E3: MSHAAEPARDGVEASAEGPRAVFVLLEERRPADSAQLLSLNSLLPESGIVADIELENVLDPDSFYELKSQPLPLRSSLPISLQATPATPATLSASSSAGGSRTPAMSSSSSSRVLLRQQLMRAQAQEQERRERREQAAAAPFPSPAPASPAISVVGVSAGGHTLSRPPPAQVPREVLKVQTHLENPTRYHLQQARRQQVKQYLSTTLGPKLASQALTPPPGPASAQPLPAPEAAHTTGPTGSAPNSPMALLTIGSSSEKEIDDVIDEIISLESSYNDEMLSYLPGGTTGLQLPSTLPVSGNLLDVYSSQGVATPAITVSNSCPAELPNIKREISETEAKALLKERQKKDNHNLIERRRRFNINDRIKELGTLIPKSSDPEMRWNKGTILKASVDYIRKLQKEQQRSKDLESRQRSLEQANRSLQLRIQELELQAQIHGLPVPPTPGLLSLATTSASDSLKPEQLDIEEEGRPGAATFHVGGGPAQNAPHQQPPAPPSDALLDLHFPSDHLGDLGDPFHLGLEDILMEEEEGVVGGLSGGALSPLRAASDPLLSSVSPAVSKASSRRSSFSMEEES | -2.839 log2 | 3.895 log2 |  | 
NXF1 (protein, UniProt Q9UBU9 2-619, looked up) Nuclear RNA export factor 1: ADEGKSYSEHDDERVNFPQRKKKGRGPFRWKYGEGNRRSGRGGSGIRSSRLEEDDGDVAMSDAQDGPRVRYNPYTTRPNRRGDTWHDRDRIHVTVRRDRAPPERGGAGTSQDGTSKNWFKITIPYGRKYDKAWLLSMIQSKCSVPFTPIEFHYENTRAQFFVEDASTASALKAVNYKILDRENRRISIIINSSAPPHTILNELKPEQVEQLKLIMSKRYDGSQQALDLKGLRSDPDLVAQNIDVVLNRRSCMAATLRIIEENIPELLSLNLSNNRLYRLDDMSSIVQKAPNLKILNLSGNELKSERELDKIKGLKLEELWLDGNSLCDTFRDQSTYISAIRERFPKLLRLDGHELPPPIAFDVEAPTTLPPCKGSYFGTENLKSLVLHFLQQYYAIYDSGDRQGLLDAYHDGACCSLSIPFIPQNPARSSLAEYFKDSRNVKKLKDPTLRFRLLKHTRLNVVAFLNELPKTQHDVNSFVVDISAQTSTLLCFSVNGVFKEVDGKSRDSLRAFTRTFIAVPASNSGLCIVNDELFVRNASSEEIQRAFAMPAPTPSSSPVPTLSPEQQEMLQAFSTQSGMNLEWSQKCLQDNNWDYTRSAQAFTHLKAKGEIPEVAFMK |  |  | 1.555 | 3.395
